# Measurements as given in patent US20060205646.
# What was measured:
# bovine serum albumin = bovine serum albumin (UniProt P02769)
# [1] = test system: T1, p26 protein from Artemia franciscana
# T1 sequence: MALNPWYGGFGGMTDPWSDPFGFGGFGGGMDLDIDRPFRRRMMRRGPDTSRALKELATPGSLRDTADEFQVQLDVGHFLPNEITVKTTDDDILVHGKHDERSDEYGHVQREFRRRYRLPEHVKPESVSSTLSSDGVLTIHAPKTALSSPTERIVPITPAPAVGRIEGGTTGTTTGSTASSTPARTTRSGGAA
# Heat gamma, sequence (chain, as listed by the source): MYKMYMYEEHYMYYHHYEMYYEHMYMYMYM
# activated recombinant MMP9, sequence (chain, as listed by the source): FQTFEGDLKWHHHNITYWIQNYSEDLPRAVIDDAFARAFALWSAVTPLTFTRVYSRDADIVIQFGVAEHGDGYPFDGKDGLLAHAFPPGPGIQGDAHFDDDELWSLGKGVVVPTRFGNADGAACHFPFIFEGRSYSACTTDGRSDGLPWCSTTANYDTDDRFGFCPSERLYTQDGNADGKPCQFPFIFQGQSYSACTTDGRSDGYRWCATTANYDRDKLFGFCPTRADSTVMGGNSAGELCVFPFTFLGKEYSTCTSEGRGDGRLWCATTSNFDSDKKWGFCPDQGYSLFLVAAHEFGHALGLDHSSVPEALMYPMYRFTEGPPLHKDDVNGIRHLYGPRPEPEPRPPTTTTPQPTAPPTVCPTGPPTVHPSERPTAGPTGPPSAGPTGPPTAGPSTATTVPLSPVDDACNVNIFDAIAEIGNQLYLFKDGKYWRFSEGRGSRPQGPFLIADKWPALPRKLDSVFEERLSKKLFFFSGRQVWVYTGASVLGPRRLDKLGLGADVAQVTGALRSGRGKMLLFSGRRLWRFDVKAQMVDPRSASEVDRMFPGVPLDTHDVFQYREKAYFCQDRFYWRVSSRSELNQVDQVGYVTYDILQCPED
# bovine serum albumin, sequence (P02769 25-607): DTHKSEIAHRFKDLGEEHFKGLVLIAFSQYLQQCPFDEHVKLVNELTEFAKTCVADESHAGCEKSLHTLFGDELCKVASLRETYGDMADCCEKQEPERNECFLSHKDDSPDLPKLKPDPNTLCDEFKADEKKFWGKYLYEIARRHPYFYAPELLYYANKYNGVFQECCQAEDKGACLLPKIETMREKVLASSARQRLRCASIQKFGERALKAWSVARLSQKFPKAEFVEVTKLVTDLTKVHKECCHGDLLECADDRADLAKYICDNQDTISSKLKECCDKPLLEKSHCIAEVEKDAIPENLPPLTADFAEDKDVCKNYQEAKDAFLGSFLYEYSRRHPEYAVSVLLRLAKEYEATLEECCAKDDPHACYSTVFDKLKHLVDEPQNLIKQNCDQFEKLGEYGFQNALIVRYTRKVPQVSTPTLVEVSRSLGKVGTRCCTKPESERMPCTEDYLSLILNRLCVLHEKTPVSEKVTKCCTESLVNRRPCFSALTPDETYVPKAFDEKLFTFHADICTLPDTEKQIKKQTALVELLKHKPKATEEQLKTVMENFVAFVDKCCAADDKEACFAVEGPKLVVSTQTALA
Substance,"cleavage of Fluorogenic Peptide substrate I by 0.270 µg activated recombinant MMP9, 60 µg Heat Gamma (Heat gamma)",cleavage of pET-28a by Nde I after 1 hour pretreatment at 40° C. (agarose gel) (bovine serum albumin),cleavage of pET-28a by Nde I after 1 hour pretreatment at 40° C. (agarose gel) [1]
activated recombinant MMP9,Heat gamma efficiently inhibits the MMP9 activity as indicated by a decrease in relative fluorescence,–,–
Nde I restriction endonuclease,–,An equivalent amount of BSA (5 µg) did not protect the enzyme any better than the buffer control,"In the presence of 5 µg of p26 protein, Nde I remained fully active, and completely cleaved pET-28a"
